The record followed here is PMC10721474 (Plant Communications, 2023).

One series concerns the target T1, PIN1 (Arabidopsis thaliana, UniProt Q9C6B8).
T1 sequence (Q9C6B8 1-622): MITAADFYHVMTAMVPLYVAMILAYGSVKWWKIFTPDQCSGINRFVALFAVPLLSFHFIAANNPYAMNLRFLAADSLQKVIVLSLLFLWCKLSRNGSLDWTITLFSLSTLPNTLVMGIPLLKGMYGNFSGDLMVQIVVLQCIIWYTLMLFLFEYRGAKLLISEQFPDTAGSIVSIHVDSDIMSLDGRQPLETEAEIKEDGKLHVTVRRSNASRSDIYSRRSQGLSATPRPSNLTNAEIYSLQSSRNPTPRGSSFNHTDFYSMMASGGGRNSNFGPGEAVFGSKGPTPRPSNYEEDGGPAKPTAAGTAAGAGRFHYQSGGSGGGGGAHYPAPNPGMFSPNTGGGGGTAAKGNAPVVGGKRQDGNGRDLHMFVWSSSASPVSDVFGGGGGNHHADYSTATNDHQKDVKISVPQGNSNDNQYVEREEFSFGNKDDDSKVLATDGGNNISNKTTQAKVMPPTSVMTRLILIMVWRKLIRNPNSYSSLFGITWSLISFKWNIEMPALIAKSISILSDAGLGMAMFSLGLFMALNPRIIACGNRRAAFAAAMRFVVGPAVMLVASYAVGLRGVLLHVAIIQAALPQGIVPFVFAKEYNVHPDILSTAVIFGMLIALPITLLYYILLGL
T1 sequence (Q9FG74 1-498 partner): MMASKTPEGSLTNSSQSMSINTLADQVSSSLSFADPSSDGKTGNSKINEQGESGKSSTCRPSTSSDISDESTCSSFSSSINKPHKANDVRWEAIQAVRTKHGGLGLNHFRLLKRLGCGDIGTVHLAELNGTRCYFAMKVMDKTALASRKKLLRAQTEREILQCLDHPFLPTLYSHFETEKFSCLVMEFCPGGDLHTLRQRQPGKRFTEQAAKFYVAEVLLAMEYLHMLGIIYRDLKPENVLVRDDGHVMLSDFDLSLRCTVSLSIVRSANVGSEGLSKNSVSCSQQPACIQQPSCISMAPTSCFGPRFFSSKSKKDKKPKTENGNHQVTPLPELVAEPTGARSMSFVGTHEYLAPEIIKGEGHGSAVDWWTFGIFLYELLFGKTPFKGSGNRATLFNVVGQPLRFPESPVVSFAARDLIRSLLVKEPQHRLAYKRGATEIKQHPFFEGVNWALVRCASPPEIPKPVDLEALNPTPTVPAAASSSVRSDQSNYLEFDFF
Nature of the series: [3H]IAA efflux assay in HEK293F cells. The series is classed as cell-based.

The series “cryo-EM structure” deals with the molecule itself. Nature of the series: cryo-EM structure.
Series [1] concerns the target Arabidopsis thaliana PIN-FORMED 1 (PIN1) auxin transporter (Arabidopsis thaliana, UniProt Q9C6B8). Nature of the series: cryo-EM structure.

As to `O=C(O)Cc1c[nH]c2ccccc12` [IAA, indole-3-acetic acid], at PIN1, the “[3H]IAA efflux assay in HEK293F cells” value was “had much lower retention of [^3H]-IAA than cells transfected with the empty vector”.

B1: Arabidopsis thaliana PIN-FORMED 1 (PIN1) auxin transporter (natural protein)
chain: T1 sequence (Q9C6B8 1-622)
As to B1, in the series “cryo-EM structure”, the binding result was “binds”.

B2: synthetic nanobody sybody-19 (VHH)
VHH: QVQLVESGGGLVQAGGSLRLSCAASGFPVDITWMEWYRQAPGKEREWVAAIYSSGQSTWYADSVKGRFTISRDNAKNTVYLQMNSLKPEDTAVYYCRVKVGAWYKGQGTQVTVSA
As to B2, the binding result in series [1] is reported as “binds”.
